# Experimental data published in PMC7089970, “Structural insights into catalytic mechanism and product delivery of cyanobacterial acyl-acyl carrier protein reductase” (Nature Communications, 2020).
# Residue numbers refer to the chain shown, from its start. Names may count otherwise. “And” between values parts separate entries of the source, which are not always exact repeats. Identical values can stand only once. “Also recorded” adds a separate entry of the source. Like-named read-outs stand apart in the source and are kept apart here.
# T1: ADO (Synechococcus elongatus, UniProt Q54764)
# T1 construct: His6-tag peptide (C, cleaved yes); made in house; host or cells: E. coli BL21(DE3), without chaperone plasmid
# T1 sequence (Q54764 1-231): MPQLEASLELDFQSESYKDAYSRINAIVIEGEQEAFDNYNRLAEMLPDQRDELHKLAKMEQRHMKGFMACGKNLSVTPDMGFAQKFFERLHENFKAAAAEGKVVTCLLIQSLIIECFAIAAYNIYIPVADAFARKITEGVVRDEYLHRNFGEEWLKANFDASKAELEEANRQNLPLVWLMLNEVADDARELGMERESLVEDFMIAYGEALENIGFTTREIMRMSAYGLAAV
# T2: AAR (Synechococcus elongatus, UniProt Q54765)
# T2 construct: modeled the complete AAR protein containing 341 amino acid residues; 22-residue C-terminal peptide with His6 (G + […]) (C, cleaved yes); made in house; host or cells: E. coli BL21(DE3) co-transformed with chaperone plasmid pG-KJE8
# T2 sequence (Q54765 1-341): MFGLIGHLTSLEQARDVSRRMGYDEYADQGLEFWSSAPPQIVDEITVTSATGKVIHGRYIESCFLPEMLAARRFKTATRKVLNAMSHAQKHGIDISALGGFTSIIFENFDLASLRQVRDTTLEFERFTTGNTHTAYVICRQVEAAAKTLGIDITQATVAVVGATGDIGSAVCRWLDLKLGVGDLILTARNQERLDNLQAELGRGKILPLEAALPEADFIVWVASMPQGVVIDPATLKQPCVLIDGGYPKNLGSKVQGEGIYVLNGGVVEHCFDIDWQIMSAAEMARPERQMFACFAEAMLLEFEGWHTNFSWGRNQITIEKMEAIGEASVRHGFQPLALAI
# B1: AAR R73A (protein)
# chain: T2 sequence (Q54765 1-341) with R73A
# modifications: left off: His6, C-terminal, cleaved
# B2: AAR K80A (protein)
# chain: T2 sequence (Q54765 1-341) with K80A
# modifications: left off: His6, C-terminal, cleaved
# B3: AAR Y247F: AAR single mutant Y247F (protein)
# chain: T2 sequence (Q54765 1-341) with Y247F
# modifications: left off: His6, C-terminal, cleaved
# B4: AAR R79A (protein)
# chain: T2 sequence (Q54765 1-341) with R79A
# modifications: left off: His6, C-terminal, cleaved
# B5: ADO E200A/D201A (protein)
# chain: T1 sequence (Q54764 1-231) with E200A, D201A
# modifications: left off: His6, C-terminal, cleaved
# B6: ADO E200A (protein)
# chain: T1 sequence (Q54764 1-231) with E200A
# modifications: left off: His6, C-terminal, cleaved
# B7: ADO E196A (protein)
# chain: T1 sequence (Q54764 1-231) with E196A
# modifications: left off: His6, C-terminal, cleaved
# What was measured:
# [1] = ITC; for Kd: read-out: KD value, binding with stearoyl-CoA, presence of potassium ion (+K+, 200 mM KCl), N.D. = not detected; for binding of AAR mutant with stearoyl-CoA (in words): +K+
# Protocol: (§1) The binding affinity of AAR with ADO or stearoyl-CoA was measured by isotheral titration calorimetry (ITC) using a MicroCal Auto-ITC200 microcalorimeter (GE Healthcare Bio-sciences, Pittsburgh, PA). […] Wild type or mutants of ADO (or AAR) were placed into the sample cell (200 µL working volume) at a final concentration of 30 µM (60 µM for AAR) and was titrated with successive 2-µL injections of AAR protein with concentration of 500 µM (or ADO protein with concentration of 1 mM). Titrating AAR (500 µM) or ADO (1 mM) into the same buffer was performed as a control to determine the background correction. […] Injection of stearyol-CoA into the reaction buffer was performed as control to determine background correction.
# [2] = Enzymatic activity assay of AAR toward stearoyl-CoA (octadecanal by GC-MS); format: biochemical, Synechococcus elongatus PCC 7942
# Excerpt: PCC 6803 and Synechocystis sp. […] The extraction step was repeated for three times.
# ADO = target: T1, ADO; assay: ITC binding of AAR (wild type and mutants) with ADO; parameters: species or system Synechococcus elongatus PCC 7942
# Protocol: as §1
# AAR = target: T2, AAR; assay: ITC binding of ADO (wild type and mutants) with AAR; parameters: species or system Synechococcus elongatus PCC 7942
# Protocol: as §1
molecule,measurement,setting,value
"AAR wild type: acyl-acyl carrier protein reductase from Synechococcus elongatus PCC 7942, wild type recombinant protein",binding between AAR and stearoyl-CoA for AAR incubated with NADPH (in words),[1],not significantly affected by NADPH
same,Kd,[1]; listed as AAR,90 nM
same,Kd,[1]; listed as apo-AAR,~90 nM
same,"Octadecanal yield, single data (data1-data3)",[2],5.8 and 7.04 and 5.2
B1,binding of AAR mutant with ADO (in words),ADO,abolish the binding capability with ADO
B2,binding of AAR mutant with ADO (in words),ADO,abolish the binding capability with ADO
B3,binding of AAR mutant with stearoyl-CoA (in words),[1],decreased binding affinity
same,binding of AAR mutant with stearoyl-CoA (in words),[1]; listed as Y247F mutant,reduced binding affinity with stearoyl-CoA
same,Octadecanal yield,[2],61.1 ± 6.76 µg/mL
same,"Octadecanal yield, EVERAGE","[2]; source data of Table 3, +K+",61.0928
same,"Octadecanal yield, single data (data1-data4)","[2]; source data of Table 3, +K+",68.55 and 59.38 and 55.3483
same,binding of AAR mutant with ADO (in words),ADO,almost the same as that of AAR wild type
B4,binding of AAR mutant with ADO (in words),ADO,abolish the binding capability with ADO
B5,binding of ADO mutant with AAR (in words),AAR,completely lose their capability to bind AAR; also recorded: completely abolished the capability of ADO to bind with AAR
B6,binding of ADO mutant with AAR (in words),AAR,significantly reduced binding affinity with AAR
B7,binding of ADO mutant with AAR (in words),AAR,significantly reduced binding affinity with AAR
